Data published in patent publication US20250011739, “ENGINEERED CAS PROTEIN AND USE THEREOF” (SHANDONG SHUNFENG BIOTECHNOLOGY CO.LTD., published 2025).

How the values were obtained:
Assay in all cases: cell_activity; PAM ATG; GFP reporter in CHO cells
[1] = biological target: T1, Cas12j19 E100K-S400R-L763R (E100K,S400R,L763R)
T1 chain: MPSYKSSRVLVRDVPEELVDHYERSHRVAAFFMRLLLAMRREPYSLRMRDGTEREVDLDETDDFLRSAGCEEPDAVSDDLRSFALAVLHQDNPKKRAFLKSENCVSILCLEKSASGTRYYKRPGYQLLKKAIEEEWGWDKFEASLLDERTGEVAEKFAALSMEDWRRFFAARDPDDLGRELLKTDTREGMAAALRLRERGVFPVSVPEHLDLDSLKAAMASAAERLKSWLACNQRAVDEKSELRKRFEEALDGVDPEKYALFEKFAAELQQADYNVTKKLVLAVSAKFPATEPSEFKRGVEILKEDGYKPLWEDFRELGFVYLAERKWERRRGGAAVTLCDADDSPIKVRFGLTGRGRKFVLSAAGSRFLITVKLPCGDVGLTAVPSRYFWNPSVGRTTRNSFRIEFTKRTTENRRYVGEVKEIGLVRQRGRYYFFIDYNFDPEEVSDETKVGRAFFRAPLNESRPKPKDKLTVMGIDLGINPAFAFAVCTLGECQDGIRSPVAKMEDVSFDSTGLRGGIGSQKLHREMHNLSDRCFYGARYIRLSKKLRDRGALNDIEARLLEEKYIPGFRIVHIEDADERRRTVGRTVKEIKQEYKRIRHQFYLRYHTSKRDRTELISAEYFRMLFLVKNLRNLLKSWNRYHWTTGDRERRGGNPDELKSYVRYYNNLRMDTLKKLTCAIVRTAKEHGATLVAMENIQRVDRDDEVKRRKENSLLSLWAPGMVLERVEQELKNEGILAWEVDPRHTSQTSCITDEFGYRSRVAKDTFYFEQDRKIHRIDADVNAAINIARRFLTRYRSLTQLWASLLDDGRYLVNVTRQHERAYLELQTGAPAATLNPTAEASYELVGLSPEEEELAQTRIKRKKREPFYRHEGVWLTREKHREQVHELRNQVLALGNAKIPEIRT
Excerpt: (§1) With reference to (Yang, Yi, et al. “Highly efficient and rapid detection of the cleavage activity of Cas9/gRNA via a fluorescent reporter.” Applied biochemistry and biotechnology 180.4 (2016): 655-667.), a fluorescent reporter system for verification of Cas12j19 cleavage was constructed, where a fluorescent reporter vector carried an RFP and a non-luminous GFFP, and a Cas vector carried a CFP. A target FUT8-3: […] (SEQ ID NO: 28) on a GFFP sequence was selected for testing, where an underlined part was a PAM sequence. A DR sequence was […] (SEQ ID NO: 29). 48 h after a CHO cell was transfected, a proportion of GFP fluorescence in CFP and RFP fluorescence was determined by FCM to determine an editing efficiency.
(§2) In this example, in SEQ ID NO: 19, an amino acid 100 was mutated into K, an amino acid 400 was mutated into R, and an amino acid 763 was mutated into R to obtain a three site-mutated protein E100K-S400R-L763R; and in SEQ ID NO: 19, an amino acid 100 was mutated into K, an amino acid 400 was mutated into R, an amino acid 763 was mutated into R, and an amino acid 45 was mutated into T to obtain a four site-mutated protein E100K-S400R-L763R-S45T.

[2] = biological target: T2, Cas12j19 WT
T2 chain: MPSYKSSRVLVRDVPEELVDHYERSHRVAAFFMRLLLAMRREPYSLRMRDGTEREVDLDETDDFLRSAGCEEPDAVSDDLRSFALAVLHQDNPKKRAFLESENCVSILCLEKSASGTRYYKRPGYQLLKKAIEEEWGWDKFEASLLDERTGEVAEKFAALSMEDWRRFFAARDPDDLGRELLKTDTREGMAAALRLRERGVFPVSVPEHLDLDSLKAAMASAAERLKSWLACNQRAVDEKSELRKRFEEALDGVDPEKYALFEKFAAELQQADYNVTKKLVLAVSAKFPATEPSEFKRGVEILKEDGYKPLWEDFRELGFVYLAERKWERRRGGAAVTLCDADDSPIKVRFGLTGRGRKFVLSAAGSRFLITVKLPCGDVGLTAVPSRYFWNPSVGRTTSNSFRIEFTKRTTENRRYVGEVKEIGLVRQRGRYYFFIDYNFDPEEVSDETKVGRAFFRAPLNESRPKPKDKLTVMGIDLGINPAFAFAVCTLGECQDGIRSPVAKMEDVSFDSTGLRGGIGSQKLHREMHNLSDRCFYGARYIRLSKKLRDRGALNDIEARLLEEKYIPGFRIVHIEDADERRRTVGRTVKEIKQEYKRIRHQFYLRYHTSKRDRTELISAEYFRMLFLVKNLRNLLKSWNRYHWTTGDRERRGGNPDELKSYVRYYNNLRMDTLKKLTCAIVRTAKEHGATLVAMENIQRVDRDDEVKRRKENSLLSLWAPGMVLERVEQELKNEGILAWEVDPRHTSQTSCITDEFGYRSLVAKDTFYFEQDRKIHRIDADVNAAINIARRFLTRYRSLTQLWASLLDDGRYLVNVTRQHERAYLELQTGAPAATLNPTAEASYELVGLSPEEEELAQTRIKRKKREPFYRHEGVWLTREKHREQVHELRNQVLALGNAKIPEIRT
Excerpt: as §1, §2

[3] = biological target: T3, enCas-SF02 (Cas12j19 E100K-S400R-L763R-S45T) (E100K,S400R,L763R,S45T)
T3 chain: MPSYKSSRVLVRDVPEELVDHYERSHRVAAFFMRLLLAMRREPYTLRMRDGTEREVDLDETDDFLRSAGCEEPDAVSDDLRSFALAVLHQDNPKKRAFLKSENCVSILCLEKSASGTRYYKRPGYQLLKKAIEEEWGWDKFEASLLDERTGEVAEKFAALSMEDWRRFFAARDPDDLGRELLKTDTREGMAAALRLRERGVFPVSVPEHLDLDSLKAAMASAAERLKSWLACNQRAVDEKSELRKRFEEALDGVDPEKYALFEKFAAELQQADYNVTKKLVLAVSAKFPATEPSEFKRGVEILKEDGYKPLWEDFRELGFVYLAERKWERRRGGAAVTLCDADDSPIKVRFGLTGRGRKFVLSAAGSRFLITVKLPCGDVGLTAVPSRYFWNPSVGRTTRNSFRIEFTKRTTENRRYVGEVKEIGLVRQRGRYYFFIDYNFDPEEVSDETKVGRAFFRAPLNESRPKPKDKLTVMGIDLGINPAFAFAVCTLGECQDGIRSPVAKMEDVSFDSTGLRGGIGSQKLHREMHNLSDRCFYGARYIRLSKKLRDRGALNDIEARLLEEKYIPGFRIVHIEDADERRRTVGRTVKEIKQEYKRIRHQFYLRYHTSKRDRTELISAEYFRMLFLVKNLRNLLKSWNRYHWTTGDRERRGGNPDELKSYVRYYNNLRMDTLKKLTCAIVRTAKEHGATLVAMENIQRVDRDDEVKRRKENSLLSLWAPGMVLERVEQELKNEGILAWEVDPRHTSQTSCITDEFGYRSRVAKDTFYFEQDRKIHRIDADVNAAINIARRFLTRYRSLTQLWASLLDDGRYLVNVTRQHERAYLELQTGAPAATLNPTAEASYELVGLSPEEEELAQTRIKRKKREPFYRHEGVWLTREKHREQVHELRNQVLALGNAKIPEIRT
Excerpt: as §1, §2

B1: Cas12j19 FUT8-3 guide (DR + spacer, order inferred) ; FUT8-3 target (ssRNA ; dsDNA)
RNA: GUGCUGCUGUCUCCCAGACGGGAGGCAGAACUGCACGAGGCUGUCUACAAUGGGGA
DNA 1: ATGGAGGCTGTCTACAATGGGGA
DNA 2: TCCCCATTGTAGACAGCCTCCAT
activity [1]: ~90% | activity [2]: ~6% | activity [3]: ~90%
